Results on one molecule are retold here after patent publication US5453362, “Eukaryotic transcription protein; host cell factor” (Tularik Inc.).

Data set [1] addresses VP16-induced complex: Oct-1 POU domain + GST-VP16 + partially purified human HCF (Homo sapiens / Herpes simplex virus, UniProt P14859;P06492;P51610 P14859:280-438,P06492:5-411,P51610:2-2035). The data set is described as follows: EMSA; 50 mM KCl, pH 7.9, 1 mM EDTA, 30 C; complex disrupted by anti-HCF sera (FIG. 4, WGA fraction). The settings on record: tags: GST on VP16; Oct-1 POU recombinant from E. coli, GST removed by thrombin; label: 32P end. In general terms: A gel shift assay detects complexes by their altered migration in electrophoresis.

The target in data set [2] is GST-VP16 with insect extract, no Oct-1 POU (Herpes simplex virus, UniProt P06492 P06492:5-411). The data set is described as follows: EMSA; no specific complex with SL2 or Sf9 extract without Oct-1 POU. As to conditions: tags: GST; label: 32P end.
Chain of GST-VP16 with insect extract, no Oct-1 POU (P06492 5-411, one chain of several): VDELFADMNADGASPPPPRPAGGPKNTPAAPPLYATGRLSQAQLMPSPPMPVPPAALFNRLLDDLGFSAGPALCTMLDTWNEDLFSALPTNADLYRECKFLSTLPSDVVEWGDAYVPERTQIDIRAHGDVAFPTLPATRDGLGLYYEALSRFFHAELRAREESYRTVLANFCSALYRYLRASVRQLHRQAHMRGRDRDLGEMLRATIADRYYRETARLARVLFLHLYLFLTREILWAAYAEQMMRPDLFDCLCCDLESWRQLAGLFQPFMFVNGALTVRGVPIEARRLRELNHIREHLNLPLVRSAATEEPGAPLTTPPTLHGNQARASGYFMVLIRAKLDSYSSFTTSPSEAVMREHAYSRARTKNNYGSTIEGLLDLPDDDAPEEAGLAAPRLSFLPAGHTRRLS

Chain of VP16-induced complex: Oct-1 POU domain + GST-VP16 + partially purified human HCF (P14859 280-438, chain 1 of 3): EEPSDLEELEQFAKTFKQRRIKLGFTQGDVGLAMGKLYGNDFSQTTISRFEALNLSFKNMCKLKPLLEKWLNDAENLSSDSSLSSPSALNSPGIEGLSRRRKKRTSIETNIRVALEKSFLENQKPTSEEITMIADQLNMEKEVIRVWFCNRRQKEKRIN
Chain of VP16-induced complex: Oct-1 POU domain + GST-VP16 + partially purified human HCF (P06492 5-411, chain 2 of 3): as the sequence (P06492 5-411, one chain of several) above
Chain of VP16-induced complex: Oct-1 POU domain + GST-VP16 + partially purified human HCF (P51610 2-2035, chain 3 of 3): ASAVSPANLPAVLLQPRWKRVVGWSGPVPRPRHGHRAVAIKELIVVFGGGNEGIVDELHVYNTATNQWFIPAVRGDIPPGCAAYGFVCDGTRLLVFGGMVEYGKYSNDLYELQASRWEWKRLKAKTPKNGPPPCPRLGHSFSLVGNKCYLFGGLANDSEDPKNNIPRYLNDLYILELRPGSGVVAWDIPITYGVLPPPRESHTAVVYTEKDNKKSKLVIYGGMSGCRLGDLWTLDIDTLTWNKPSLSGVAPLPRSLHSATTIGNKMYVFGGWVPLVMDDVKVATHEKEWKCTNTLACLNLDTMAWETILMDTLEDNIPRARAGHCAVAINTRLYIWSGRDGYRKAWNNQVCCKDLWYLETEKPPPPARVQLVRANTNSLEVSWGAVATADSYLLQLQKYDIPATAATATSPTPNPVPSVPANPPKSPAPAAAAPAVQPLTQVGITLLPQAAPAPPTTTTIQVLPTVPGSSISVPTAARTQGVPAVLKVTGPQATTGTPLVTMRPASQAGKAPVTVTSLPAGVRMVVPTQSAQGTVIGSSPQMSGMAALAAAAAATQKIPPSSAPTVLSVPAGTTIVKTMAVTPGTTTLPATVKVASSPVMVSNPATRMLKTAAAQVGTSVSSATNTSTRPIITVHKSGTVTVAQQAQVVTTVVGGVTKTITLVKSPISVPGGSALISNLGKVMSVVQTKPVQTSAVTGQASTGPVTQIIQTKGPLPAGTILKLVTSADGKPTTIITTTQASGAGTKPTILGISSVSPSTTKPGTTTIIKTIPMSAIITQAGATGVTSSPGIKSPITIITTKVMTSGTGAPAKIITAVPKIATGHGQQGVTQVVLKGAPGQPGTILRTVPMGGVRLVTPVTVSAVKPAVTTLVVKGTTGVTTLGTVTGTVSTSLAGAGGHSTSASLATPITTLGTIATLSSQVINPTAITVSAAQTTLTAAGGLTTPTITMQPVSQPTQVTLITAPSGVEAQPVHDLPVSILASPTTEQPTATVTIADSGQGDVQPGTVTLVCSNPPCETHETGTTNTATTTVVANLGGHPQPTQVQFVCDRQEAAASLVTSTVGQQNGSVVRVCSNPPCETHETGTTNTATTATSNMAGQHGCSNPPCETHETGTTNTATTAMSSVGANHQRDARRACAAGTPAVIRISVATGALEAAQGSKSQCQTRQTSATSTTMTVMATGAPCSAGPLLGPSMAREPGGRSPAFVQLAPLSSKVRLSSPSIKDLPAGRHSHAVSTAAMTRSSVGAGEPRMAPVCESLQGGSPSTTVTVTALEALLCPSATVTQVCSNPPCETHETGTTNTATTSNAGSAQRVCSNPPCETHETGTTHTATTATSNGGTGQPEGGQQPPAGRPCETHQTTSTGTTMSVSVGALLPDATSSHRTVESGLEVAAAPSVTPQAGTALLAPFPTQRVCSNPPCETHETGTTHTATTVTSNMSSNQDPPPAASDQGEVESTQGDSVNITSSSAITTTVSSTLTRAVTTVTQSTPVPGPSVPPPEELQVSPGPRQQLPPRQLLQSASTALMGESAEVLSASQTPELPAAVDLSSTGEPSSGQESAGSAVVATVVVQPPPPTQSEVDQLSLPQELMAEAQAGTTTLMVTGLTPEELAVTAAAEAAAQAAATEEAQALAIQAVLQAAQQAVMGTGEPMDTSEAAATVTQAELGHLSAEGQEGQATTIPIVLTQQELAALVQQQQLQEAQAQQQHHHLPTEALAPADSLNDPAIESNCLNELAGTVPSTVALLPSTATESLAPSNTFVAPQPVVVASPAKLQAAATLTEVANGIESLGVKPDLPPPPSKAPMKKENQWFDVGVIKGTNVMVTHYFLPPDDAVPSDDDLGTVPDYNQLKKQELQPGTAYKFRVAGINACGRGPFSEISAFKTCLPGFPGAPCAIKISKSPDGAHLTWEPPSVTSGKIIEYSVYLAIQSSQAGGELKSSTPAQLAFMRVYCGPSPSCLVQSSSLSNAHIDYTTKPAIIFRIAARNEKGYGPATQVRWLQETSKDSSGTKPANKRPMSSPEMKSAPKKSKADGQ

B1: (Octa+)… ICP0 IE element (dsDNA)
DNA 1: ATGCTAATGATAT
DNA 2: ATATCATTAGCAT
As for B1, the binding result in data set [1] is reported as “binds”; in data set [2] it was “no binding”.
